Test results from a protein production outcome set (Wang et al. 2014).

Assay: label from the status in PepcDB records
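Also: failed if final PepcDB status was selected cloned or expressed and not failed if soluble or beyond.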

Sequence	protein production
MRRSKADVERYIASVQGSAPSPREKSMKGFYFAKLYYEAKEYDLAKKYISTYINVQERDPKAHRFLGLLYEVEENIDKAVECYKRSVELNPTQKDLVLKIAELLCKNDVTDGRAKYWVERAAKLFPGSPAIYKLKEQLLDCKGEDGWNKLFDLIQSELYARPDDIHVNIRLVELYRSNKRLKDAVAHCHEADRNTALRSSLEWNLCVVQTLKEYLESLQCLDSDKSTWRATNKDLLLAYANLMLLTLSTRDVQEGRELLESFDSALQSVKSSVGGNDELSATFLETKGHFYMHVGSLLLKMGQQSDIQWRALSELAALCYLVAFQVPRPKVKLIKGEAGQNLLETMAHDRLSQSGHMLLNLSRGKQDFLKEVVESFANKSGQSALCDALFSSQSSKERSFLGNDDIGNLDGQVPDPDDLARYDTGAVRAHNGSLQHLTWLGLQWNSLSTLPAIRKWLKQLFHHLPQETSRLETNAPESICILDLEVFLLGVIYTSHLQLKEKCNSHHTSYQPLCLPLPVCRQLCTERQKTWWDAVCTLIHRKALPGTSAKLRLLVQREINSLRGQEKHGLQPALLVHWAQSLQKTGSSLNSFYDQREYIGRSVHYWRKVLPLLKMIRKKNSIPEPIDPLFKHFHSVDIQASEIGEYEEDAHITFAILDAVNGNIEDAMTAFESIKNVVSYWNLALIFHRKAEDIENDALSPEEQEECKNYLRKTRDYLIRILDDSDSNTSVVQKLWYISKQQKFGIWGWEDCTSVRV	failed
MRRTLVVPDVLLLGTLLAGLLLLSGCEGDYRPRAVGPIGEITVVMDSSHWTGPSGEALRANVTPWVETLPVSERSFQLRHLELTDERTYERVQDLKNVIIAAPLSDSTNETSFLRRRLSDEAEQAILDGQTAVVPKPNLWRRSQRIYYVAAASPDALAETFQSQGTQIRDTFTEATLQRMDRNMYEDDRRSALEDTLMQRHGFAVNMQSDFQIAVDTTTGSEGFVWLRRLLAQTRREFFVYYVEDVSPDQITPEWIYNTRDSLTRRHLRGNVRGFAKIDYRRPLKTEQRSFLDRYAYDSRGLWYMVAPLGGGNELRPVGGGGPFVNYTFYDQATDRVYMLDGSIFAPDNDKIDLLRQMEVMARTFRTAEGSRSPDASPTAAKLEHHHHHH	failed
MRSAAVLALLLCAGQVTALPVNSPMNKGDTEVMKCIVEVISDTLSKPSPMPVSQECFETLRGDERILSILRHQNLLKELQDLALQGAKERAHQQKKHSGFEDELSEVLENQSSQAELKEAVEEPSSKDVMEKREDSKEAEKSGEATDGARPQALPEPMQESKAEGNNQAPGEEEEEEEEATNTHPPASLPSQKYPGPQAEGDSEGLSQGLVDREKGLSAEPGWQAKREEEEEEEEEAEAGEEAVPEEEGPTVVLNPHPSLGYKEIRKGESRSEALAVDGAGKPGAEEAQDPEGKGEQEHSQQKEEEEEMAVVPQGLFRGGKSGELEQEEERLSKEWEDSKRWSKMDQLAKELTAEKRLEGQEEEEDNRDSSMKLSFRARAYGFRGPGPQLRRGWRPSSREDSLEAGLPLQVRGYPEEKKEEEGSANRRPEDQELESLSAIEAELEKVAHQLQALRRG	failed
MRSAGEPRWVVPILASPLLWHAARFALVSAYLLGGVVKLFDFAAAVAEQERFGLHPGWLWATLAIVVELGGSLLVLADRLVWLGAGALGVLTFVAMLTANAFWSAPAADRWIQANAFFEHFGLIAGFVLLAMLSDQRRSTS	failed
MRSSDILIVDDEVGIRDLLSEILQDEGYSVALAENAEEARKLRHQARPAMVLLDIWMPDCDGITLLKEWAKNGQLNMPVVVMSGHASIDTAVEATKIGAIDFLEKPISLQKLLSAVENALKHGAAQIETGPVFDKLGNSAAIQEMNREVEAAAKRTSPVFLTGEAGSPFETVARYFHKNGTPWVSPARVEYLIDMPMELLQKAEGGVLYVGDIAQYSRNIQTGITFIIGKAERCRVRVIASCSYAAGSDGISCEEKLAGLFSESVVRIPPLSMQHEDIPFLIQGIACNVAESQKITPTAFSDDALAVLSRYDWPGNFEQLQNVVTTLLLEADGQEIGIGAASSALGRGVPADGTGHMACGFDFNLPLRELREEVERRYFEYHIAQEGQNMSKVAQKVGLERTHLYRKLKQLGIGVSRRAGEKTEE	not failed
MRSSQAIDFERIPEMEDKWRKEITAMTVTLQDKRKAIQNDEILRGVHPKSHGCLDAEFTVNRDIAPQFQVGLFAQPGKCFRARIRYSNADVLKRADLEKGQDATGARFLNHGSRGMAIKVLDVGAPVLLEDGCARNQDFLMVNTPEFAFRNVRDYLRLTKALCASADGADPLLFFLPGELLKRGMMDMSGSLLPAPAGEPPQNAGLRALFEANRAFFDDFDAEDMQGVISAAGVVGKIQSTPVRNPLFAPYFSAASFRFGKDRVMRFSVVPLQSEEMAADMASDAFEDFSDDYLSQALALSVATNEPIKLSFRIQIAHEEDIVNDIDGMIENAAKTWDEDQFSHTEVAQITINPPCPSAELVDTCKPLLFTPWHAVVDFEPLGGINRLRKPVYSTSAAFRRSVLEHHHHHH	failed
MRSSQGSGADPGARGRVDQRLRRGARPAPTSPHSPAKTNHPLRAAIIGGGPGGLYTAALLKRLAPDREVTVYERNAPDDTFGFGVVLSDETLGGIEHADPTVYEALKAHFVRWDDIDIVHRHTRHTSGGHRFAALGRRRLLEILHDRCRDLGVELRFRTEAPPPDRLARTHDLVVAADGVHSATREAYRDVFRPRLTPHRCRYIWLAADFAFDAFRFEIAETEHGVMQLHGYPFAPDASTVIVEMREEVWRAAGFDELDETESTARCAKIFADALGGRPLRSNKSAWTTFRTVVNERWSHGNIVLLGDAAHTAHFSIGSGTKLAVEDALALAACLAERPTLQEALTAYEEERRPVVASTQRAAKASLEWFEDLDRYLAQPPRQFAFNLLTRSRRVTHENLRLRDAGFTESVEREFGCPPDTPPMFTPFRLRGLTLRNRVVVSPMDMYSATDGVPGDFHLVHLGARALGGAALVMTEMVCVSAEGRITPGCAGLYTGRQGEAWRRITDFVHDGAPGTAIGVQLGHSGRKGSTRLMWEGMDEPLPDGNWPLVAPSPLPYRPGGQVPRELSRAQLADVREQFRAAAERAAGAGFDLLELHCAHGYLLSGFLSPLTNHRTDAYGGSPENRLRFPLEVFDAVREVWPDERPMTVRISATDWAEGGTSAEEAVEIARAFAAHGADAIDVSTGQVVSGERPEFGRSYQTPYADRIRHEAGVPVIAVGAISSWDDVNSLVLAGRTDLCALARPHLYDPHWTLHAAAEQGYDGPGARWPAPYRAGSRPPRTGRTDAPRPRLTLHGPGQDG	failed
MRSSSSSSVLPSLPNARLRRPAVWIAFLAVAALSLTGCDLFGSNDDEGRRVTTDVVIANSGNFSAQDGSLTLYNPTASTATLKDIEVAFINSLAQHNGRLFVVDNTTSDNAGKITTFDTEQLGPVDQITNLQRSPRRIAFPEENKGYVTNLSRDLDDAPSNFVPDTSTVSVVDLEADSVTKRVDVGRSPEGIAAVARKAFVANSADGTLSVLDAGADTVNTTLSLPDCANPKSVFVDDENEVAVVCQGGGEQASEVLFLSPIEETIKDRVELGAPIGSANGSQSAYYSEGAEELYTISGSQAFGGNGTGEIFRIDTNANALDATLEIPQDDGLIGITAVGYDDVTQDLYVTRLPVGAGGFPLFSANGTALVLDRQGNEVTRFETGNSPGHITFLGDRQ	failed
MRSTVAEPPVLDKIIKNVRVVRPHNDAVELLDIGIKDGKFAQIAPNITPDTGQEIFDAKNLLGFPGVVDAHMHIGIYQPLDKDAVTESKAAAMGGVTTSLNYIRTGQYYLNKGGSYRDFFPEVLALSAGNFFVDYSYHVAPIASQHIDEIPLLFEEHGVTSFKIFMFYGGYGLHGLSDQQNLFLMINKEERYDFAHFEFIMRGVTRLMAEYPEARDYISLSLHCEVAEILNAYTKIVENDSSLSGLHAYSAARPPHSEGLAISIAAYLAHETNCANINLLHLSSRKAMEAALIMQTAFPHINFRREVTVGHLLLDVDTPNGTWAKVNPPIRPRADVEYLWQAVLNHQVDWIVSDHACCSAEQKRSAKDPNNIWLAKSGFGGTEYLLSGVVSEGSKRGMSYNHMAKLLSWNPSRRFGLLTKGDIAIGYDADLVLVDPNESFVVRAAESESQQGYTPFEGMELTGRVKSTFLRGSLIYHNGQVLGSPNGRYVRRSLGG	failed
MRSWAIDLEEYLMSKALEGKSPGTVDRYRYELQRLLSYVNKAVRDITEGDISGYMRAYKAIRQVSNQTLKNVRAVYSSFFAWLRDRDRIRRNPMALVEAIKVLEHHHHHH	failed
MRSYAIGDIHGHLSLLQEIHGRIAADRARTGDDEAPVVHIGDLVDRGPDSRGVVEYLRQGIEQGENWVVLKGNHDRMFAGFLRDPAHQDPGLRGDLSWLHPRLGGGPTLESYGVAHAADRPVAIVHREAVALVPAEHVAFIEALPAVYRRDEALFVHAGIRPGVPLAEQIEDDLVWIREPFLSDPRDHGMLVVHGHTAIDAVTHYGNRLNLDSGAAYGGPLSAVVIEGRSVWQLGPEGRRPIALEHHHHHH	failed
MRTATSTSPATGTPAPVPSRTPDVTVTVIVYNDAGRLPRAVASALRQSHANIEVVISDDHSTDATEEVARELAAHDPRVVYLRLPENSGGCSAPRNRALEIARAPYLMFLDSDDELPERAVEVLLAAHRERDLDFAMGAVHRIREDGGRRTTWMPHLVAERRTLDGIEADPRLLFEHLSTSKMYARAFLDRHGLRFPEGIHYEDQLFSAQAYCLAKTFTVVPEPVYRWYIAPYADADSASISNQRHKLTNVRDRVHVQRLIDAFLAESGHEALREDKDFKFLKHDFRMYAGDLPYRDDTWLASFADLMNPYLDTLAEGAYARLPRAERVVLRLLRDRRLSDVRTAARGLGHDVAPRRVTPDEQSGRVYWGEEVPASPESRRELDLTDLDLDTRPFFTALLRHEITEITRGPGASVDLTVRTYDPALRLPVGPQRAVLHLSPGPRRLTVPFRLSPVRPGLFEGRVRLDLAAARLPLHGFAGTRHPVLRLRHRGRTHTGILLAPLAFPPLTARVPYRTGLTPHRVTLRPEGHNPGRLQITWQPVGTTAKILGPAARRLSTPRTRRAARLLSNILRLEHHHHHH	not failed
MRTLIILLLCTNTSFAIAQISPKAVEKNNQSVKTAGFFNDSDSLNKAIHLSDEAIALEPSYKLAYANKIKYLMALGQKEKALQTMLQMEKFSPDDPYYILGKGMMLEENAKKSLAMDAYKQAASLFKKRLKEKPTEADLMNYVFVLFLRDNKNYSLDEIEKEYPQIFSPAIRQHTKKLIDELSNKREDVIHEMLGGK	failed
MRTPLIDRRDFLRAAGIGFAAVMAPSAWAKTLAANAVFATAFVKRDGSFGAAILSEAGKVLHAIDLPDRGHDVTFDPISKRSVVFARQPGTFAVVFDHSGRDAPQTVASISGRHFFGHGVFSPDGALLYATENDFDNAAGVIGIYDARAKFSRVGEFPTYGMGPHELLLLGDGRTMAVANGGIETHPDYGRAELNIATMKPSYVLIDRVTGDLIEKHELPASLHQLSIRHMDTDPSGTVWFGCQYRGPGTDRPLLVGRAVRGKELQLLDMPQDVLSGFRNYIGSVAANLSAGSVAVSSPEGNSLVVIDAASGRVVSSSALVEVCGLAPDGSGFIATTGAGEIIEGSGATRSEPDYVWDNHMLRIERA	failed
MRTSNPMLKKEAFRKEGASASAMTIGGTVGKTFIMLILLLATSVYSYIQMMQGTMKMPVLIGALIVAAIIAFASMFFPRISPFGAPIYAAVEGVVLGSISAVYTMKFGDSIVLNAVLLTISILFAMLVLYATRVVKVTDKFRTGVMAATLGIMVMYLVVFLLNMFGVTVPYIHQGGTIGIIISAVVIVVAALNLLLDFDLIENGVRSQAPKYMEWYTAMGLMLTLVWLYLEILRFVSYFTKND	not failed
